# Laboratory results taken from patent publication US20120107330A1 (published 2012).
# Ends that are not written are not given here.
# T1: human TNFR1 (recombinant, R&D Systems cat no. 636-R1/CF, biotinylated) (human, UniProt P19438 30-211, limits assumed, biotinylated with EZ-Link NHS-LC-LC-biotin)
# T1 construct: it is not tied to the BIAcore reagent; also called p55; hTNFR1
# T1 sequence (looked up): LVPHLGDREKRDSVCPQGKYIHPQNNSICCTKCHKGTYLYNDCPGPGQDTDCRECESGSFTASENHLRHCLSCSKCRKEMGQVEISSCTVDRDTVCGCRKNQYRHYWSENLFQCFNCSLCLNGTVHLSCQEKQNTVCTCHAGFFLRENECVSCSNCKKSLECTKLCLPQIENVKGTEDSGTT
# T2: human TNFR1 on MRC-5 cells (human, UniProt P19438 30-455)
# T2 sequence (looked up): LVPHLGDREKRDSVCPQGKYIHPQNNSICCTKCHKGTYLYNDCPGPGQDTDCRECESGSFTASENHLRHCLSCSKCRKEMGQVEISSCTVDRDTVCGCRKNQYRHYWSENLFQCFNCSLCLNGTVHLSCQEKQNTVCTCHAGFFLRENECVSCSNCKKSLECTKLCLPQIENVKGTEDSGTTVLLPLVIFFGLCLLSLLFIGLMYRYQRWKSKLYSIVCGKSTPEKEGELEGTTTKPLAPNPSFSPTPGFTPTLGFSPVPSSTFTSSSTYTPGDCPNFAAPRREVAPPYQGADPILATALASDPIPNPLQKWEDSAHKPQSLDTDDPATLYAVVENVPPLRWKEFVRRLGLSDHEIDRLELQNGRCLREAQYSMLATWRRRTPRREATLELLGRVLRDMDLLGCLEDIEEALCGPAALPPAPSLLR
# T3: mouse TNFR1 (recombinant, R&D Systems cat no. 425-R1-050/CF, biotinylated) (mouse, UniProt P25118 22-212, biotinylated with EZ-Link NHS-LC-LC-biotin)
# T3 construct: also called murine TNFR1; biotinylated mouse TNFR1
# T3 sequence (looked up): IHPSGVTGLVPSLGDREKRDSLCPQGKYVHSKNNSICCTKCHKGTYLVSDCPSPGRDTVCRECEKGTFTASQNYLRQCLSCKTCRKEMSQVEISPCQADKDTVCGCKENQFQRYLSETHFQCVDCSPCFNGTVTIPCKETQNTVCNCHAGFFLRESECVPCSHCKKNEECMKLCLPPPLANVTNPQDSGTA
# T4: peptide A3 (negative control fragment of human TNFR1) (human, cysteine pairing not given here; also: biotinylated, position not given here)
# T4 construct: also called control peptide
# T4 peptide: SGSGNDCPGPGQDTDCREC
# T5: peptide D2 (domain-1 peptide of human TNFR1) (human, cysteine pairing not given here; also: biotinylated, position not given here)
# T5 construct: also called peptide 1
# T5 peptide: SGSGNSICCTKCHKGTYLY
# T6: peptide D5 (domain-3 peptide of human TNFR1) (human, also: biotinylated, position not given here)
# T6 construct: also called peptide 2
# T6 peptide: SGSGCRKNQYRHYWSENLF
# T7: peptide E5 (overlapping domain-3 peptide of human TNFR1) (human, also: biotinylated, position not given here)
# T7 construct: also called peptide 3
# T7 peptide: SGSGNQYRHYWSENLFQCF
# Columns and labels:
# [1] = molecular target: dog TNFR1 (recombinant, R&D Systems cat no. 4017-TR-025/CF, biotinylated) (dog); experiment: BIAcore, dog TNFR1 on SA chip
# [2] = molecular target: T1, human TNFR1 (recombinant, R&D Systems …); experiment: BIAcore, human TNFR1
# [3] = molecular target: T2, human TNFR1 on MRC-5 cells; experiment: cell-based or functional assay
# [4] = molecular target: T1, human TNFR1 (recombinant, R&D Systems …); experiment: BIAcore, human TNFR1 on SA chip
# From the text: (§1) A significant advantage for an anti-TNFR1 dAb would be cross-reactivity between different species. Given the limited conservation of the sequence of the extracellular domain of TNFR1 between mouse, dog, Cynomologus monkey and human (FIG. 6), it would be exceptional for any antibody or single variable domain to recognize TNFR1 of these different species at similar affinities. […] For each of these experiments the TNFR1 was biotinylated using EZ-Link NHS-LC-LC-biotin (Pierce cat no. 21343), according to the manufacturer's instructions, followed by binding of the biotinylated TNFR1 to a Streptavidin-coated BIAcore chip. […] Examples for binding to the different species are shown in FIGS. 7 and 8, with a summary of the results in Table 2.
# [5] = molecular target: T3, mouse TNFR1 (recombinant, R&D Systems …); experiment: BIAcore, mouse TNFR1 on SA chip
# From the text: as §1
# [6] = molecular target: T4, peptide A3 (negative control fragment …); experiment: BIAcore, biotinylated peptide A3 on SA chip
# [7] = molecular target: T5, peptide D2 (domain-1 peptide of human …); experiment: BIAcore, biotinylated peptide D2 on SA chip, dAb at 2.5 µM
# [8] = molecular target: T6, peptide D5 (domain-3 peptide of human …); experiment: BIAcore, biotinylated peptide D5 on SA chip, dAb at 2.5 µM
# [9] = molecular target: T7, peptide E5 (overlapping domain-3 …); experiment: BIAcore, biotinylated peptide E5 on SA chip, dAb at 2.5 µM
# rat albumin = molecular target: T8, rat albumin (rat, UniProt P02770 25-608); experiment: BIAcore; rat albumin
# T8 construct: also called rat serum albumin
# [10] = molecular target: T9, mouse serum albumin (MSA, Sigma-Aldrich) (mouse, UniProt P07724 25-608); experiment: BIAcore; mouse albumin
# T9 construct: also called mouse albumin
# [11] = molecular target: T2, human TNFR1 on MRC-5 cells; experiment: cell-based or functional assay; remark: listed apart in the source
# [12] = molecular target: T10, human serum albumin (HSA, Sigma-Aldrich) (human, UniProt P02768 25-609); experiment: BIAcore, HSA on CM5 chip
# T10 construct: also called human albumin
# Procedure: (§2) FIG. 23. BIAcore analysis for binding of DOM0100-AlbudAb in-line fusions to human serum albumin (HSA). HSA (Sigma-Aldrich) was coated on a BIAcore CM5 chip using EDC/NHS chemistry according to manufacturer's instructions. Subsequently, the DMS constructs, each consisting N-terminally to C-terminally of an anti-TNFR1 dAb-Linker-AlbudAb and identified in Table 6, were injected at 1 μM over the HSA surface and binding was monitored. […] The corresponding BIAcore trace for each DMS clone is indicated with an arrow.
# [13] = molecular target: T9, mouse serum albumin (MSA, Sigma-Aldrich); experiment: BIAcore, MSA on CM5 chip
# Procedure: as §2, with “22.” for “23.”, “mouse” for “human”, “(MSA). MSA” for “(HSA). HSA”, “MSA” for “HSA”
# After expression and purification, all constructs were tested on the BIAcore for binding to both mouse and human serum albumin. The off-rates were determined and used to discriminate between the AlbudAbs for their suitability in prolonging the half-life of the fusion molecule. Whereas the linker had little influence on the affinity of the AlbudAb for albumin, a significant difference existed between the dAbs and their albumin affinity. The best AlbudAb for mouse binding was DOM7h-11-15 followed by DOM7m-16 and DOM7h-11-12 (FIG. 22).
# [14] = molecular target: T9, mouse serum albumin (MSA, Sigma-Aldrich); experiment: BIAcore, MSA; DMS0169 (DOM7h-11-12 AlbudAb)
# [15] = molecular target: T9, mouse serum albumin (MSA, Sigma-Aldrich); experiment: BIAcore, MSA; DMS0168 (DOM7m-16 AlbudAb)
# T10 sequence (P02768 25-609 limits assumed): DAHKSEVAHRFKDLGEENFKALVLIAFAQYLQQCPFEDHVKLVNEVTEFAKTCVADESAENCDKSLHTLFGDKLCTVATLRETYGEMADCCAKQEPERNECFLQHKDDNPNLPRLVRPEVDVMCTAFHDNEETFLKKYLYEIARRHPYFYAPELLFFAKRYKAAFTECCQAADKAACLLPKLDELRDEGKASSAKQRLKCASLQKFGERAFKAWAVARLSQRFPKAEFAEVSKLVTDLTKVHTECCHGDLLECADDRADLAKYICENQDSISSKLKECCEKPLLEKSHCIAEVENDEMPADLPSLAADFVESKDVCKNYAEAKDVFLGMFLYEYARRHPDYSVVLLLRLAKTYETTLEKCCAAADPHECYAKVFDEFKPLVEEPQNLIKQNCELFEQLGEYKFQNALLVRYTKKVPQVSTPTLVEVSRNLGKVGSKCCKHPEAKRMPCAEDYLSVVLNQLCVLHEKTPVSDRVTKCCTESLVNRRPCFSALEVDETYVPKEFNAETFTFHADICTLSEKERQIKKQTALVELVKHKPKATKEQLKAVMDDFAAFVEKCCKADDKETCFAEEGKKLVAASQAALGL
# T8 sequence (P02770 25-608 limits assumed): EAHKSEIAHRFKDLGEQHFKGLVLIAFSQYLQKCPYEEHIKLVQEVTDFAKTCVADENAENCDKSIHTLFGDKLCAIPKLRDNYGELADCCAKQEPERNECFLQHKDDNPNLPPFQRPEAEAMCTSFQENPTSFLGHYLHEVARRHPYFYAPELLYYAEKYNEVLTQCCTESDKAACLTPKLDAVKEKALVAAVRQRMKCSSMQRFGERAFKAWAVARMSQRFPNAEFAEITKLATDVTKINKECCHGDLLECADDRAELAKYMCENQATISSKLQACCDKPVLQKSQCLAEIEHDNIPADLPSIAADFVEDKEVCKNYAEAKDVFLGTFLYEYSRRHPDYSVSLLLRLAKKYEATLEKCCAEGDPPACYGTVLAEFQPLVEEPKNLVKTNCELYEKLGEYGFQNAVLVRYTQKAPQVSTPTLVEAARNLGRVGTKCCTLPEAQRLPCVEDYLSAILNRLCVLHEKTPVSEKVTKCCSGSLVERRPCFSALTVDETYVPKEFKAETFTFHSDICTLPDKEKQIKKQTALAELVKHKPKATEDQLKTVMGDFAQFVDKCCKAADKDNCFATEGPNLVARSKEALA
binder,measurement,setting,value
"DOM1h-574-16 (other, VH dAb; also called DOM1h-57-16 [sic]; the DOM0100 dAb) VH: EVQLLESGGGLVQPGGSLRLSCAASGFTFVKYSMGWVRQAPGKGPEWVSQISNTGDRTYYADSVKGRFTISRDNSKNTLYLQMNSLRAEDTAVYYCAIYTGRWEPFDYWGQGTLVTVSS",Kd,[1],20 nM
same,Kd,[2],1 nM
same,MRC-5 ND50 (TNFα-mediated IL-8 release),[3],8 nM
same,Kd,[4],1 nM
same,Kd,[5],20 nM
same,binding result,[6],no binding (tested: 2.5 µM)
same,binding result,[7],binds
same,binding result,[8],binds
same,binding result,[9],binds
"DMS0182 (bispecific antibody, in-line fusion of an anti-TNFR1 dAb and an anti-serum albumin dAb (AlbudAb)) EVQLLESGGGLVQPGGSLRLSCAASGFTFVKYSMGWVRQAPGKGPEWVSQISNTGDRTYYADSVKGRFTISRDNSKNTLYLQMNSLRAEDTAVYYCAIYTGRWEPFDYWGQGTLVTVSSASTDIQMTQSPSSLSASVGDRVTITCRASRPIGTTLSWYQQKPGKAPKLLIWFGSRLQSGVPSRFSGSGSGTDFTLTISSLQPEDFATYYCAQAGTHPTTFGQGTKVEIKRAAAEQKLISEEDLN",Kd,rat albumin,> 1000 nM
same,Kd,[10],> 1000 nM
same,ND50 (MRC5),[11],6 nM
same,koff,[12],0.17 s⁻¹
same,koff,[13],0.75 s⁻¹
"DMS0169 (bispecific antibody, anti-TNFR1 dAb / AlbudAb in-line fusion) EVQLLESGGGLVQPGGSLRLSCAASGFTFVKYSMGWVRQAPGKGLEWVSQISNTADRTYYAHSVKGRFTISRDNSKNTLYLQMNSLRAEDTAVYYCAIYTGRWVPFEYWGQGTLVTVSSASTSGPSDIQMTQSPSSLSASVGDRVTITCRASRPIGTMLSWYQQKPGKAPKLLILFGSRLQSGVPSRFSGSGSGTDFTLTISSLQPEDFATYYCAQAGTHPTTFGQGTKVEIKRAAAEQKLISEEDLN",ND50 (MRC5),[11],2.7 nM
same,Kd,[14],~200 nM
"DMS0168 (bispecific antibody, anti-TNFR1 dAb / AlbudAb in-line fusion) EVQLLESGGGLVQPGGSLRLSCAASGFTFVKYSMGWVRQAPGKGLEWVSQISNTADRTYYAHSVKGRFTISRDNSKNTLYLQMNSLRAEDTAVYYCAIYTGRWVPFEYWGQGTLVTVSSASTSGPSDIQMTQSPSSLSASVGDRVTITCRASQSIIKHLKWYQQKPGKAPKLLIYGASRLQSGVPSRFSGSGSGTDFTLTISSLQPEDFATYYCQQGARWPQTFGQGTKVEIKRAAAEQKLISEEDLN",ND50 (MRC5),[11],16 nM
same,Kd,[15],~200 nM
